Measurements reported in the RNAGym collection of RNA variant scans (doi:10.1073/pnas.2313332121).

B1: TPR t1 (parent)
chain: GACCAAUCUGCCCUCAGAGCUCGAGAACAUCUUCGGAUGCAGAGGAGGCAGGCUUCGGUGGCGCGAUAGCGCCAACGUCCUCAACCUCCAAUGCAUCCCACCACAUGAUGAUGCCUGAAGAGCCUUGGUUUUUUG

Variants of: B1
Assay: polymerase ribozyme fitness, log enrichment relative to wild type (log ratio); higher = more active; in vitro selection for triplet polymerase activity
In short: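 Streptavidin-bead capture of gel-excised extended constructs, followed by RT-PCR, closed a single triplicate in vitro selection round. That round began by annealing PCR-built, transcribed mutant libraries of each subunit of a heterodimeric triplet polymerase ribozyme with a biotinylated primer, the partner subunit and triplets, then incubating them frozen at −7 °C. After Illumina sequencing of inputs and outputs, genotypes needed ≥10 input reads and ≥1 read per output. Fitness is the base-2 logarithm of genotype enrichment over wild-type enrichment, using inverse-variance-weighted replicate averages.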

Row | Variant | polymerase ribozyme fitness (log ratio)
1 | GACCAAUCGGCCCUCAGAGCUCGAGAACAUCUUCGGAUGCAGAGGAGGCAGGCUUCGGUGGCGCGAUAGCGCCAACGUCCUCAACCACCAAUGCAUCCCCCCACAUGAUGAUGCCUGAAGAGCCUUGGUUUUUUG [U9G U87A A100C] | -0.443
2 | GACCAAUCUACCCUCAGAGCUCGAGAACAUCUUCGGAUGCAGAGGAGGAAGGCUUCGGUGGCGCGAUAGCGCCAACGCCCUCAACCUCCAAUGCAUCCCACCACAUGAUGAUGCCAGAAUAGCCUUGGUUUUUUG [G10A C49A U78C U116A G120U] | -0.56
3 | GACCAAUCUACCCUCAGAGCUCGAGAACUUCUUCGGAUGCAGAGGAGGCAGGCUUCGGUGGCGCGAUAGCGCCAACGUCCUCAACCUCCAAUGCAUCCCACCACAUGAUGAUGCCUGAAGAGCCUUGGUUUUUUG [G10A A29U] | -1.77
4 | GACCAAUCUACCCUCAGAGCUCGAGAACAUCUUCGGAUGCAGCGGAGGCAGGCUUCGGUGGCGCGAUAGCGCCAACGUCCUCAACCUCCAAUGCAUCCCACCACAUGAUGAUGCCUGAAGAGACCUGGUUUUUUG [G10A A43C C123A U125C] | -1.73
5 | GACCAAUCUACCCUCAGAGCUCGAGAACAUCUUCGGAUGCAGAGGAGGCAGGCUUCGGUGGCGCGAUAGCGGCAACCUCCUCAACCUCCAAUGCGUCCCAGCACAUGAUGAUGCCUGAAGAGCCUUGGUUUUUUG [G10A C72G G77C A95G C101G] | -3.03
6 | GACCAAUCUACCGUCAGAGCUCGAGAACAUCUUCGGAUGCAGAGGAGGCAGGCUUCGGUGGCGCGAUAACGCCAACGCCCUCAACCUCCAAUGCAUCCCACCACAUGAUGAUGCCUGAAGAGCCUUGGUUUUUUG [G10A C13G G69A U78C] | -3.65
7 | GACCAAUCGGCCCUCAGAGCUCGAGAACAUCUUCGGAUGCAGAGGAGGCAGGCUUCGGUGGCGCGAUAGCGCCAACGUCCUCAACCUCCAAUGCAUCCCACCACAUGAAGAUGCCUGAAGAGCCUUGGUUUUUUG [U9G U109A] | -3.09
8 | GACCAAUCUAACCUCAGAGCUCGAGAACAUCUUCGGAUGCAUAGGAGACAGGCUUCGGUGGCACGUUAGCGCCAACGUCCUCAACCUCCAGUGCAUCCCACCACAUGAUGAUGCUUGAAGAGCCUUGGUUUUUUG [G10A C11A G42U G48A G63A A66U A91G C115U] | -6.69
9 | GACCAAUCUACCCUCAGAGCUCGAGAACAUCUUCGGAUGCAGAGGAGGCAGGCUUCGGUGGCGCGAUAGCGCUAACGUCCUCAUCCUCCAAUGCAUCCCACCACAUGAUUAUGCCUGAAGAGCCUUGGUUUUUUG [G10A C73U A84U G110U] | -2.38
10 | GACCAAUCUACCCUCAGAGCUCGAGAACAUCUUCGGGUGCAGAGGAGGCAGGCUUCGGUGCCGCGAUAGCGCCAACGUCCUCAAGAUCCAAUGCAUCCCACCACAUGAUGAUACCUGAAGAGCGUUGGUAUUUUG [G10A A37G G61C C85G C86A G113A C124G U130A] | -5.79
11 | GACCAAUCUACCCUCAGAGCUUGAGAACAUCUUCGAAUGCAGCGGAGGGAGGCUUCGGUGGCGCGAUAGCGCCAACGUCCUCAACCUCCAAAGCAUCACACCACAUGAUGAUGCCUGAACAGCCGUGGUUUUUUG [G10A C22U G36A A43C C49G U92A C98A G120C U125G] | -7.92
12 | GACCAAUCUACCCUAAGAGCUCGAGAACAUCUUCGGAUGCAGAUGAGGCAGGCUUUGGUGGCGCGAUAGCGCCGACGUCCUCAACCUCCAAUGCAUCCCACCACAUGAUGAUGCCUGAAGAGCCUUGGUUUUUUG [G10A C15A G44U C56U A74G] | -3.61
13 | GACCAAUCUACCCUCAGAGCUCGAGAACAUCUUCGGAUGCAGAGGAGGCAGGCUUCGGUGGCGCGAUAGCGCCGACGUCCUCAACCUCCAAUGCAUUCCAUCACGUGAUGAUGCCUGAAGAGCCUUGGUGUUUUG [G10A A74G C97U C101U A105G U130G] | -5.19
14 | GACCAAUCUACCCUCAGAGCUCGAGAACAUCUUCGGAUGCAGAGGAGGAAGGCUUCGGUGGCGCGAUAGCGCCAACGUCCUCAACCUCCAAUGCAUCCCACCACAUGAUGAUGCCUGAAGAGCCUUGGUUUUUUG [G10A C49A] | 0.131
15 | GACCAAUCUACCCUCAGAGCUCGAGAACAUCUUCGGAUGCAGAGGAGGCAGGCUUCGGUGGCGCGAUAGCGCAAACGUCCUCAACCUCCAAUGCAUCCCACCACAUGAUGAUGCCUGAAGAGCCUUGGUUUUUUG [G10A C73A] | -0.58
16 | GACCAAUCUACCCUCAGAGCUCGAGAACAUCUUCGGAUGCAGAGGAGGCAGGCUUCGGUGGCGCGAUAGGGCCAACGUCCUCAACCUCCAAUGCAUCCCACCACAUGAUGAUGCCUGAAUAGCCUUGGUUUUUUG [G10A C70G G120U] | -1.35
17 | GACCAAUCUACCCUAAGAGCUCGAGAACAUCUUCGGAUGCAGAGGAGGCAGGCUUCGGUGGCGCGAUAGCGCCAACGUCCUCAACCUCCAAUGAAUCCCACCACAUGAUGAUGCCUGAAGAGCCUUGGUUUUUUG [G10A C15A C94A] | -3.08
18 | GACCAAUCUACCUUCAGAGCUCGAGAACAUCUUCGGAUGCACAGGGGGCAGGCUUCGGUGGCGCGAUAGCGCCAACGUCCUCAACCUCCAAUGCAUCCCAUCACAUGAUCAUGCCUGAAGAGCCUUGGUUUUUUG [G10A C13U G42C A46G C101U G110C] | -6.91
19 | GACCAAUCUACCCUCAGAGCUCGAGAACAUCUUCGGAUGCAGAGGAGGCAGGCUUCGGUGGAGCGAUAGCGCCAACGUCCUCAACCUCCAAUGCAACCCACCACAUGAUGAUGCCUGAAGAGCCUUGGUUUUUUG [G10A C62A U96A] | -2.02
20 | GACCAAUCUACCCUCAGAGCUCGAGAACAUCUUCGGAUGCAGAGGAGGCAGGCUUCGGUGGCGCGAUAGCGCCAACGUCCUCAACCUCCAAUGCCUCCCACCACAUGAUGAUGCCUGAAGAGCCUUGGUUUUUUG [G10A A95C] | -0.471
21 | GACCAAUCUACCCUCAGAGUUCGAGAACAUCUUCGGAUGCAGAGGAGGCAGGCUUCGGUGGCGCAAUAGAGCCAACGUCCUCAACCUCCAUUGCAUCCCACCAGAUGAUGAUGCCUGAAUAGCCUUGGUUUUUUG [G10A C20U G65A C70A A91U C104G G120U] | -6.74
